Target: T1, murine IA^d MHC class II heterodimer expressed on the surface of Drosophila S2 cells (murine, UniProt P04228 24-256; P01921 28-265)
T1 construct: whole, on cells; Expressed without peptide on Drosophila S2 cells, alone or with accessory molecules; also called H2-A^d; recombinant MHC class II
T1 sequence (MHC II alpha, looked up): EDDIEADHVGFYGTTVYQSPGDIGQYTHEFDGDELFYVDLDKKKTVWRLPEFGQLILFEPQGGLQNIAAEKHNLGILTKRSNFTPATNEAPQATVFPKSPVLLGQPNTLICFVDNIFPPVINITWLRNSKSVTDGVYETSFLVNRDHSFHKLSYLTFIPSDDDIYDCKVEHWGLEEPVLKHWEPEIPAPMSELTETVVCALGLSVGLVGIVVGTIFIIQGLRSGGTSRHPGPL
T1 sequence (MHC II beta, looked up): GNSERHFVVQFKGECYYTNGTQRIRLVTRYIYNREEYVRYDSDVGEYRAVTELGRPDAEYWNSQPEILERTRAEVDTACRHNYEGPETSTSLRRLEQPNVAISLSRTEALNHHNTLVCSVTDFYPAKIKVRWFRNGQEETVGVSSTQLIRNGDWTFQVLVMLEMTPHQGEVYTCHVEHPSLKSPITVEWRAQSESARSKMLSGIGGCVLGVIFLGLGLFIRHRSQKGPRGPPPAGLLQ
Assay: inferred by the filing from OVA-peptide-dose-dependent T cell proliferation with peptide-loaded Drosophila APC; no direct binding assay
Procedure: Proliferation is assayed as described in Example 5. The proliferation is measured in counts per minute (cpm)×1000 as plotted on the Y-axis against increasing concentrations of OVA peptide in μM on the X-axis. […] Proliferative responses with recombinant MHC class II alone are shown in the line having closed circles. Those with MHC class II combined with either costimulatory molecules B7.1 or B7.2 are shown respectively with lines having open and closed squares.
The effect of peptide presentation in the presence of MHC class II with and without accessory molecules, B7.1, B7.2 or B7.2 plus ICAM-1, was first assessed in a proliferation assay performed as described by Webb et al., Cell, 63:1249 (1990). Briefly, 5×10⁴ CD4⁺ T cells were cultured in microtiter wells with 5×10⁴ Drosophila cells in 300 μl of culture medium. Eighteen hours prior to harvesting, 100 μl of supernatant were removed for cytokine analysis and 1 μCi of ³H-thymidine was added to each well. At the times indicated (3, 4 or 5 days), the wells were individually harvested onto glass fiber filters and counted in a liquid scintillation counter.

binding result: binds
B1: ovalbumin323-339 (OVA) peptide (peptide)
peptide: ISQAVHAAHAEINEAGR
notes: Chemically synthesized by T-BOC chemistry and added to the cultures; also called ovalbumin peptide 323-339

— patent US20050054090A1 (Scripps Research, published 2005)
